From paper PMC9814837, “Design of a gold clustering site in an engineered apo-ferritin cage” (Communications Chemistry, 2022) come the findings set out here.

This data set concerns the molecule itself. Briefly: crystal structure; hanging-drop vapor diffusion, 0.5-1 M (NH4)2SO4 and 10-20 mM CdSO4, 20 °C; data at 100 K; space group F432, cage rebuilt by symmetry; apo protein and composites after reaction with 10-400 equiv. Au(I) precursor.

B1: apo-R168H/L169C-rHLFr (recombinant L-chain ferritin from horse liver, R168H/L169C mutant) (natural protein, UniProt P02791 1-175, looked up)
chain: MSSQIRQNYSTEVEAAVNRLVNLYLRASYTYLSLGFYFDRDDVALEGVCHFFRELAEEKREGAERLLKMQNQRGGRALFQDLQKPSQDEWGTTLDAMKAAIVLEKSLNQALLDLHALGSAQADPHLCDFLESHFLDEEVKLIKKMGDHLTNIQRLVGSQAGLGEYLFEHCTLKHD
notes: ferritin L-chain, horse liver, recombinant (rHLFr); last residue named is Asp174; Crystallised apo and after reaction with 10-400 equiv. of chloro(dimethylsulfide)gold(I); also called Au(10 equiv.)-apo-R168H/L169C-rHLFr; Au(50 equiv.)-apo-R168H/L169C-rHLFr; source: E. coli (NovaBlue, vector pMK2), purified (heat treatment, Q Sepharose, S-300); copies: 24
For B1, the binding result is “binds”.
